# According to patent US20090118184A1 (UNIVERSITY OF ROCHESTER, published 2009):
# Positions count from the first letter of the chain named. In names and notes the source's numbering stands.
# B1: factor VIIIa A2 subunit, Glu665Val (other)
# chain: SVAKKHPKTWVHYIAAEEEDWDYAPLVLAPDDRSYKSQYLNNGPQRIGRKYKKVRFMAYTDETFKTREAIQHESGILGPLLYGEVGDTLLIIFKNQASRPYNIYPHGITDVRPLYSRRLPKGVKHLKDFPILPGEIFKYKWTVTVEDGPTKSDPRCLTRYYSSFVNMERDLASGLIGPLLICYKESVDQRGNQIMSDKRNVILFSVFDENRSWYLTENIQRFLPNPAGVQLEDPEFQASNIMHSINGYVFDSLQLSVCLHEVAYWYILSIGAQTDFLSVFFSGYTFKHKMVYVDTLTLFPFSGETVFMSMENPGLWILGCHNSDFRNRGMTALLKVSSCDKNTGDYYEDSYEDISAYLLSKNNAIEPR
# B2: factor VIIIa A2 subunit, Asp519Ala (other)
# chain: B1 chain with D147A, V293E
# B3: factor VIIIa A2 subunit, Asp519Val (other)
# chain: B1 chain with D147V, V293E
# B4: factor VIIIa A2 subunit, Glu665Ala (other)
# chain: B1 chain with V293A
# B5: factor VIIIa A2 subunit, D519A and E665V (other)
# chain: B1 chain with D147A
# B6: factor VIIIa A2 subunit, D519V and E665V (other)
# chain: B1 chain with D147V
# Target: T1, factor VIIIa A1/A3C1C2 dimer, wild type (human, UniProt P00451 20-391; P00451 1709-2351)
# T1 sequence 1: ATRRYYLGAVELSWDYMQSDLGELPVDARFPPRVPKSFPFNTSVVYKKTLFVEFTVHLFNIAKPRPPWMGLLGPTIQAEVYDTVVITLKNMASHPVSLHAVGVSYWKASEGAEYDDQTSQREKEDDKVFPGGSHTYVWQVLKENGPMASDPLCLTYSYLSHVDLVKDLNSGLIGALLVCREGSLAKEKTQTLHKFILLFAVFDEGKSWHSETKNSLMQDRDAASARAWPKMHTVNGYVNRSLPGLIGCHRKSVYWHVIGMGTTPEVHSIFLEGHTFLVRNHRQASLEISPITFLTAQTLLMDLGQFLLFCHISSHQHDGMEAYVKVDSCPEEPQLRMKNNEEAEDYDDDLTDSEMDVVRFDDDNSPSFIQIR
# T1 sequence 2: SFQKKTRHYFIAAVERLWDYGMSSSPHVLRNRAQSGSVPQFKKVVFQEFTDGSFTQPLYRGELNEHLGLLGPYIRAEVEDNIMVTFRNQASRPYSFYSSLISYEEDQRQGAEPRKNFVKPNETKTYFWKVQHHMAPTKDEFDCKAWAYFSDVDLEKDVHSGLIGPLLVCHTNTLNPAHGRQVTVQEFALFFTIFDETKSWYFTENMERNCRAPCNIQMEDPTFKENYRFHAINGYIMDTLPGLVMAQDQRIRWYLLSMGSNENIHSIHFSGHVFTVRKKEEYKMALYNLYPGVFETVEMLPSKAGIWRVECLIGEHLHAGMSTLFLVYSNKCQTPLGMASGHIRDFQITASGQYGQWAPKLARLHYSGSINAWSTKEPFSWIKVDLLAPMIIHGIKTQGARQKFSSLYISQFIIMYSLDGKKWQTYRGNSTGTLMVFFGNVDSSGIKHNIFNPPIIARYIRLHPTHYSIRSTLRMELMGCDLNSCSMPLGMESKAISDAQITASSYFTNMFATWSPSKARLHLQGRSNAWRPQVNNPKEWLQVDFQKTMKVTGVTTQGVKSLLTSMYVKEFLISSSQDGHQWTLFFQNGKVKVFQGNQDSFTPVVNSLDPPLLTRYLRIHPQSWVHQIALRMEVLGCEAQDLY
# Test: cell-based or functional assay
Binder,"Factor VIIIa Decay relative to the WT value, Factor IXa absent","Factor VIIIa Decay relative to the WT value, Factor IXa present","Factor VIIIa Decay, Factor IXa absent","Factor VIIIa Decay, Factor IXa present"
B1,0.19 relative to WT,0.34 relative to WT,0.016 min⁻¹,0.0052 min⁻¹
B2,0.66 relative to WT,0.41 relative to WT,0.0556 min⁻¹,0.0063 min⁻¹
B3,0.77 relative to WT,0.44 relative to WT,0.0642 min⁻¹,0.0068 min⁻¹
B4,0.62 relative to WT,0.51 relative to WT,0.052 min⁻¹,0.0078 min⁻¹

# Target: T2, factor VIIIa A1/A3C1C2 dimer, Glu1984Ala (human, UniProt P00451 20-391; P00451 1709-2351)
# T2 sequence 1: T1 sequence 1
# T2 sequence 2: T1 sequence 2 with E295A
# Test: cell-based or functional assay
row,Binder,factor VIIIa decay rate relative to the better single mutation of the pairing
1,B4,~2.2 fold

# Target: T3, factor VIIIa A1/A3C1C2 dimer, Glu1984Val (human, UniProt P00451 20-391; P00451 1709-2351)
# T3 sequence 1: T1 sequence 1
# T3 sequence 2: T1 sequence 2 with E295V
# Test: cell-based or functional assay
row,Binder,factor VIIIa decay rate relative to the better single mutation of the pairing
1,B4,~2.7 fold

# Target: T4, factor VIIIa A1/A3C1C2 dimer, Glu113Ala (human, UniProt P00451 20-391; P00451 1709-2351)
# T4 chain 1: T1 sequence 1 with E113A
# T4 chain 2: T1 sequence 2
# Test: cell-based or functional assay
Binder,"Decay rate relative to wild type, Factor VIIIa (1.5 nM, factor IXa absent)","Decay rate, Factor VIIIa (1.5 nM factor VIIIa, factor IXa absent)"
B1,0.24 relative to wild type,0.0333 min⁻¹
B2,0.53 relative to wild type,0.0748 min⁻¹
B3,0.35 relative to wild type,0.0495 min⁻¹
B4,0.54 relative to wild type,0.0754 min⁻¹

# Target: T1, factor VIIIa A1/A3C1C2 dimer, wild type
# Test: cell-based or functional assay
# Remark: another data set of the same source
Binder,"Decay rate relative to wild type, Factor VIIIa (1.5 nM, factor IXa absent)","Decay rate, Factor VIIIa (1.5 nM factor VIIIa, factor IXa absent)"
B1,0.28 relative to wild type,0.0395 min⁻¹
B5,0.16 relative to wild type,0.0222 min⁻¹
B2,0.64 relative to wild type,0.0898 min⁻¹
B6,0.14 relative to wild type,0.0198 min⁻¹
B3,0.6 relative to wild type,0.0836 min⁻¹
B4,0.6 relative to wild type,0.0834 min⁻¹

# Target: T2, factor VIIIa A1/A3C1C2 dimer, Glu1984Ala
# Test: cell-based or functional assay
# Remark: another data set of the same source
Binder,"Decay rate relative to wild type, Factor VIIIa (1.5 nM, factor IXa absent)","Decay rate, Factor VIIIa (1.5 nM factor VIIIa, factor IXa absent)"
B1,0.26 relative to wild type,0.036 min⁻¹
B5,0.17 relative to wild type,0.0235 min⁻¹
B2,0.19 relative to wild type,0.0266 min⁻¹
B6,0.1 relative to wild type,0.0142 min⁻¹
B3,0.12 relative to wild type,0.0168 min⁻¹
B4,0.93 relative to wild type,0.13 min⁻¹

# Target: T3, factor VIIIa A1/A3C1C2 dimer, Glu1984Val
# Test: cell-based or functional assay
# Remark: another data set of the same source
Binder,"Decay rate relative to wild type, Factor VIIIa (1.5 nM, factor IXa absent)","Decay rate, Factor VIIIa (1.5 nM factor VIIIa, factor IXa absent)"
B1,0.48 relative to wild type,0.0671 min⁻¹
B2,0.23 relative to wild type,0.0319 min⁻¹
B6,0.16 relative to wild type,0.0227 min⁻¹
B3,0.19 relative to wild type,0.0262 min⁻¹
B4,0.9 relative to wild type,0.127 min⁻¹
